Laboratory results published in publication PMC4994030 (Scientific Reports, 2016).
Substitutions are numbered along the chain they refer to.

B1: GH2-42 scFv (scFv, V domains shown)
VH: EVQLVESGGGLVQPGGSLRLSCAASGFTISNWGIHWVRQAPGKGLEWVAGIGPYGGYTSYADSVKGRFTISADTSKNTAYLQMNSLRAEDTAVYYCARFGFYFDGIMDYWGQGTLVTVSS
VL: DIQMTQSPSSLSASVGDRVTITCRASQDVSSGVAWYQQKPGKAPKLLISGPTGLYSGVPSRFSGSGSGTDFTLTISSLQPEDFATYYCQQYYDWPLTFGQGTKVKRG
notes: also called scFv(GH2-42); source: E. coli ER2738, secreted, in filtered culture supernatant
B2: GH2-61 scFv (scFv, V domains shown)
VH: B1 VH with S30N, G52W, S59Y, G100Y, F101N, Y102H, F103H, D104G, I106V
VL: DIQMTQSPSSLSASVGDRVTITCRASQDVGSNVAWYQQKPGKAPKLLISWSTSLYSGVPSRFSGSGSGTDFTLTISSLQPEDFATYYCQQYGGWPITFGQGTKVEIK
notes: also called scFv(GH2-61); source: E. coli ER2738, secreted, in filtered culture supernatant
B3: GH2-107 scFv (scFv, V domains shown)
VH: B1 VH with W32F, G50Y, T91A, G100H, F101I, Y102H, F103N, D104L, G105W, I106G
VL: B2 VL with G30S, S31D, N32G, W50G, S51A, T52G, S53Y, Y91F, G92Y, G93S
notes: source: E. coli ER2738, secreted, in filtered culture supernatant
B4: GH2-62 scFv (scFv, V domains shown)
VH: B1 VH with S30N, G52W, Y54F, S59Y, G100D, F101Y, Y102L, F103N, D104N, I106G
VL: DIQMTQSPSSLSASVGDRVTITCRASQDVGGYVAWYQQKPGKAPKLLIFGASGLYSGVPSRFSGSGSGTDFTLTISSLQPEDFATYYCQQFYSSPLTFGQGTKVEIK
notes: as for B3
B5: GH2-92 scFv (scFv, V domains shown)
VH: B1 VH with S30G, G50S, Y54F, G55W, S59F, F101N, Y102H, F103Y
VL: DIQMTQSPSSLSASVGDRVTITCRASQDVNDGVAWYQQKPGKAPKLLIFGSPYLFSGVPSRFSGSGSGTDFTLTISSLQPEDFATYYCQQYFSWPITFGQGTQVGIK
notes: as for B3
B6: GH2-102 scFv (scFv, V domains shown)
VH: B1 VH with S30N, N31G, W32G, G50S, E89G, F101H, Y102H, F103Y, I106H
VL: B4 VL with G31S, Y32N, F49Y, S52P, G53Y, F91Y, S93N, S94W
notes: as for B3
B7: GH2-101 scFv (scFv, V domains shown)
VH: B1 VH with S30N, N31S, W32Y, G50S, G55W, G100Y, F101I, Y102W, I106L
VL: B1 VL with T5A, S31N, S49Y, P51T, G53S, D93S, K105E, R106I, G107K
notes: as for B3
B8: GH2-11 scFv (scFv, V domains shown)
VH: B1 VH with S30N, N31D, K65R, G100V, F101N, Y102W, F103D, D104F, G105Y, I106G
VL: B4 VL with G31D, Y32G, F49Y, G50S, S52G, G53W, F91Y, S94Y, L96I
notes: as for B3
B9: GH2-103 scFv (scFv, V domains shown)
VH: B1 VH with S30D, N31E, W32Y, G50F, G55W, F101H, Y102L, F103H, I106L
VL: B2 VL with G30F, N32G, W50G, S51T, T52P, S53F, G92Y, G93N
notes: as for B3
B10: GH2-38 scFv (scFv, V domains shown)
VH: B1 VH with N31D, W32G, F101D, Y102N, D104I, I106V
VL: B4 VL with G30F, Y32G, F49Y, A51P, G53Y, F91Y, Y92S, S94W, L96I
notes: as for B3
B11: GH2-40 scFv (scFv, V domains shown)
VH: B1 VH with S30N, N31S, G50W, G55W, Y57F, G100D, F101G, Y102H, I106V
VL: B5 VL with D31N, F49S, S51T, Y53W, F55Y, S93D, I96L, Q103K, G105E
notes: as for B3
B12: GH2-26 scFv (scFv, V domains shown)
VH: B1 VH with N31D, W32Y, G50F, G55W, S59Y, G100Y, Y102F, F103G, I106L
VL: B2 VL with G30S, N32G, S49Y, W50G, S51T, T52S, G92F, G93N
notes: as for B3
B13: GH2-75 scFv (scFv, V domains shown)
VH: B1 VH with F27S, S30G, W32S, G50Y, G100D, F101D, F103H, D104W, G105D, I106G
VL: DIQMTQSPSSLSASVGDRVIITCRASQDVSGYVAWYQQKPGKAPKLLIYSSGVPSRFSGSGSGTDFTLTISSLQPEDFATYYCQQYYNWPVTFGQGTKVEIK
notes: also called scFv(GH2-75); source: E. coli ER2738, secreted, in filtered culture supernatant
B14: GH2-24 scFv (scFv, V domains shown)
VH: EVQLVESGGGLVQPGGSLRLSCAASGFTIDNGSIHWVRQAPGKGLEWVAFIGPSGGYTFYADSVKGRFTISADTSKNTAYLQMNSLRAEDTAVYYCARFGWHNVDNMDYWGQGTLVTVSS
VL: B2 VL with S31W, N32G, W50S, S51T, T52R, G92Y, G93N, I96L
notes: as for B3
B15: GH2-31 scFv (scFv, V domains shown)
VH: B1 VH with S30N, W32F, G50S, Y54F, G55W, F101N, Y102D, F103Y, I106V
VL: B2 VL with G30S, S31W, N32G, S49Y, W50S, S51P, T52P, S53W, G92Y, G93N
notes: as for B3
B16: GH2-72 scFv (scFv, V domains shown)
VH: EVQLVESGGGLVQPGGSLRLSCAASGFTISNGGIHWVRQAPGKGLEWVAYIWPSGGYTFYADSVKGRFTISADTSKNTAYLQMNSLRAEDTAVYYCARFFNNDWIGMDYWGQGTLVTVSS
VL: B2 VL with S31Y, N32F, W50G, S51T, S53W, G92S, G93N, I96L
notes: as for B3
B17: GH2-4 scFv (scFv, V domains shown)
VH: B14 VH with D30N, N31S, S54F, F59S, H102N, N103D, V104Y, N106F
VL: B4 VL with G30F, Y32G, F49Y, G50S, G53F, F91Y, Y92F, S93D, S94W, L96I
notes: as for B3
B18: GH2-55 scFv (scFv, V domains shown)
VH: EVQLVESGGGLVQPGGSLRLSCAASGFTIDGFSIHWVRQAPGKGLEWVAGIGPYGGYTSYADSVKGRFTISADTSKNTAYLQMNSLRAEDTAVYYCARFDIWHNFGMDYWGQGTLVTVSS
VL: B4 VL with G30D, Y32N, F49S, G50S, S52G, G53S, F91S, Y92W, S94W
notes: as for B3
B19: GH2-8 scFv (scFv, V domains shown)
VH: GVQLVESGGGLVQPGGSLRLSCAASGFTIGSSGIHWVRQAPGKGLEWVAGIWPYWGSTYYADSVKGRFTISADTSKNTAYLQMNSLRAEDTAVYYCARFGVGYHYYMDYWGQGTLVTVSS
VL: B4 VL with G31W, Y32W, F49S, S52T, F91S, Y92W, S93D, L96I
notes: as for B3
B20: GH2-12 scFv (scFv, V domains shown)
VH: EVQLVESGGGLVQPGGSLRLSCAASGFTINDWGIHWVRQAPGKGLEWVAGIWPYWGYTSYADSVKGRFTISADTSKNTAYLQMNSLRAEDTAVYYCARYHVYFWWMDYWGQGTLVTVSS
VL: B4 VL with G30S, G31N, Y32N, F49Y, A51P, G53F, F91Y, S93N, S94Y, L96I
notes: as for B3

Molecular target: T1, HER2-ECD (human epidermal growth factor receptor 2, extracellular domain) (Homo sapiens, UniProt P04626)
T1 construct: also called HER-ECD
Assay: ELISA
Settings: one partner purified

Binder | binding result
B1 | binds
B2 | binds
B3 | binds
B4 | binds
B5 | binds
B6 | binds
B7 | binds
B8 | binds
B9 | binds
B10 | binds
B11 | binds
B12 | binds
B13 | binds
B14 | binds
B15 | binds
B16 | binds
B17 | binds
B18 | binds
B19 | binds
B20 | binds
